Target: Carcinoembryonic antigen (CEA) (human) (UniProt P06731)
Test: cell-based or functional assay

Chain of Carcinoembryonic antigen (CEA) (human) (P06731 35-702): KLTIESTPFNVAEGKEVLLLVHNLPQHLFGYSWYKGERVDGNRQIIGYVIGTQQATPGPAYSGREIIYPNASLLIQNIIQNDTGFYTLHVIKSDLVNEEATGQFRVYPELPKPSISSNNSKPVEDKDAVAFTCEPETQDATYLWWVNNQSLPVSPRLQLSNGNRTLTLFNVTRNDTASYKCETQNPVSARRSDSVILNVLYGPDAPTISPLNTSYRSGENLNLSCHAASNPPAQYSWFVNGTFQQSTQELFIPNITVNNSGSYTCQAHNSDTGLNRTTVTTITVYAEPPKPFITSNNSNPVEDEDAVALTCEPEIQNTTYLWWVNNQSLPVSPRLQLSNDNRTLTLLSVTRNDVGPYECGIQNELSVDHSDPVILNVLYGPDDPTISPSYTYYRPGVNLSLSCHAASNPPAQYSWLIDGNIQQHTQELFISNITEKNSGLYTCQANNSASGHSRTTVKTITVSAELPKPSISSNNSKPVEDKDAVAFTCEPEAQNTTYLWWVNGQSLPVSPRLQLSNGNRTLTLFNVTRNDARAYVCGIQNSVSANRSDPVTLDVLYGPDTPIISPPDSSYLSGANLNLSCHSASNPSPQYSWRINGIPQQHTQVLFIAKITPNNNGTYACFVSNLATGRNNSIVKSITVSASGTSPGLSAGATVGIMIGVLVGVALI

Substance: cibisatamab (bispecific antibody)
- Pearson correlation of growth reduction with the fraction of CEAhi cancer cells in each PDO: 0.915 r
